According to patent publication US20110223107A1 (ALETHIA BIOTHERAPEUTICS, published 2011):
“And” between values parts separate entries of the source, which are not always exact repeats. Identical values can stand only once. Like-named read-outs stand apart in the source and are kept apart here.

T1: recombinant Fc-KAAG1 fusion protein (full-length KAAG1) (human, UniProt Q9UBP8 1-84, biotinylated with NHS-biotin (sites not given))
T1 construct: also called recombinant human KAAG1; not shown: human Fc domain encoded by expression plasmid pYD5; vector-encoded residues between the Fc and the BamHI cloning site of pYD5
T1 sequence: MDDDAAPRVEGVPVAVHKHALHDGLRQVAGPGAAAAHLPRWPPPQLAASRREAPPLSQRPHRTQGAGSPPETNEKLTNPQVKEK

T2: Fc-fused truncated mutant of KAAG1 spanning amino acids 1-35 (human)
T2 construct: also called truncated mutant of KAAG1 1-35; first 35 amino acids of KAAG1; not shown: human Fc domain encoded by expression plasmid pYD5; vector-encoded residues between the Fc and the BamHI cloning site of pYD5
T2 chain: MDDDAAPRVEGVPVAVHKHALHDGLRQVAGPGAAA

T3: KAAG1 (Kidney associated antigen 1), endogenous, on cancer cells and in tumour tissue (human, UniProt Q9UBP8 1-84)
T3 construct: also called KAAG1 antigen
T3 sequence: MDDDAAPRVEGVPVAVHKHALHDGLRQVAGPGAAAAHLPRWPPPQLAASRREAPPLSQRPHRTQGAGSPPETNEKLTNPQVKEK

T4: monomeric recombinant KAAG1 (Homo sapiens (Human), UniProt Q9UBP8 1-84, limits assumed)
T4 construct: Analyte of the Biacore experiment
T4 sequence: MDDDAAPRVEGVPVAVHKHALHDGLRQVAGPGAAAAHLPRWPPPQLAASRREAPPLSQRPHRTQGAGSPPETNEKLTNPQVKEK

B1: G12 (Fab, V domains shown)
VH: EVQLQQSVAELVRPGASVTVSCKASGYIFTDYEIHWVKQTPAHGLEWIGVIDPETGNTAFNQKFKGKATLTADISSSTAYMELSSLTSEDSAVYYCMGYSDYWGQGTTLTVSS
VL: DIVMTQSPKFMSTSVGDRVSITCKASQDVGTAVAWYQQKPGQSPELLIYWTSTRHTGVPDRFSGSGSGTDFTLTISSVQAEDLADYFCQQHYSIPLTFGAGTKLELR
notes: also called Fab of well G12
B2: Fab of well C2 (Omniclonal AL0003Z1 plate) (Fab, V domains shown)
VH: DVQLQESGPDLVKPSQSLSLTCTVTGFSITSGYGWHWIRQFPGNKLEWMGYISFNGDSNYNPSLKSRISITRDTSKNQFFLQLNSVTSEDTATYYCASSYDGLFAYWGQGPLVTVSA
VL: DIQMTQSPSSMYASLGERVTLTCKASQDIHNYLNWFQQKPGKSPKTLIHRANRLVAGVPSRFSGSGSGQDYSLTISSLEYEDLGIYYCLQYDAFPLTFGAGTKLELK
B3: 3C4 mouse-human chimeric IgG1 anti-KAAG1 monoclonal antibody (antibody, V domains shown)
VH: EVQLQESGPDLVKPSQSLSLTCTVTGFSITSGYGWHWIRQFPGNKLEWMGYINYDGHNDYNPSLKSRISITQDTSKNQFFLQLNSVTTEDTATYYCASSYDGLFAYWGQGTLVTVSA
VL: DIVMSQSPSSMYASLGERVTITCKASQDIHNFLNWFQQKPGKSPKTLIFRANRLVDGVPSRFSGSGSGQDYSLTISSLEFEDLGIYSCLQYDEIPLTFGAGTKLELRA
notes: Mouse variable regions on human kappa and human IgG1 constant regions, expressed in 293E cells; also called chimeric 3C4
B4: 3C4 mouse anti-KAAG1 Fab (Fab, V domains shown)
VH: EVQLQESGPDLVKPSQSLSLTCTVTGFSITSGYGWHWIRQFPGNKLEWMGYINYDGHNDYNPSLKSRISITQDTSKNQFFLQLNSVTTEDTATYYCASSYDGLFAYWGQGTLVTVSA
VL: DIVMSQSPSSMYASLGERVTITCKASQDIHNFLNWFQQKPGKSPKTLIFRANRLVDGVPSRFSGSGSGQDYSLTISSLEFEDLGIYSCLQYDEIPLTFGAGTKLELR
notes: Recombinant mouse Fab prepared from E. coli; also called 3C4 Fab; well C4
B5: Fab of well D1 (Omniclonal AL0003Z1 plate) (Fab, V domains shown)
VH: EVQLQESGPDLVKPSQSLSLTCTVTGFSITSGYGWHWIRQFPGDKLEWMGYISFNGDYNYNPSLKSRISITRDTSKNQFFLQLSSVTTEDTATYYCASSYDGLFAYWGQGTLVTVSA
VL: DIKMTQSPSSMYASLGERVTITCKASQDIHTYLNWFQQKPGKSPETLIYRANRLVDGVPSRFSGSGSGQDYSLTISSLEYEDMGIYYCLQYDEFPLTFGAGTKLELK
B6: 3G10 mouse anti-KAAG1 Fab (Fab, V domains shown)
VH: EIQLQQSGPELVKPGASVKISCKASGYTFTDNYMNWVKQSHGKSLEWIGDINPYYGTTTYNQKFKGKATLTVDKSSRTAYMELRGLTSEDSAVYYCARDDWFDYWGQGTLVTVSA
VL: DVLMTQTPRSLSVSLGDQASISCRSSQSLLHSNGNTYLEWYLQKPGQPPKVLIYKVSNRFSGVPDRFSGSGSGTDFTLKISGVEAEDLGVYYCFQGSHVPLTFGAGTKLELK
notes: Recombinant mouse Fab prepared from E. coli; also called 3G10 Fab; well G10
B7: Fab of well E10 (Omniclonal AL0003Z1 plate) (Fab, V domains shown)
VH: EVQLQQSGPELVKPGASVKISCKASGDTFTDYYMNWVKQSHGKSLEWIGDINPNYGGITYNQKFKGKATLTVDTSSSTAYMELRGLTSEDSAVYYCQAYYRNSDYWGQGTTLTVSS
VL: DIVMTQAAPSVPVTPGESVSISCRSSKSLLHSNGNTYLYWFLQRPGQSPQLLIYRMSNLASGVPDRFSGSGSGTAFTLRISRVEAEDVGVYYCMQHLEYPYTFGGGTKLEIK
B8: C3 (Fab, V domains shown)
VH: EVQLQQSVAEVVRPGASVTLSCKASGYTFTDYEIHWVKQTPVHGLEWIGVIDPETGVTAYNQRFRDKATLTTDKSSSTAYMELSSLTSEDSAVYFCMGYSDYWGQGTTLTVSS
VL: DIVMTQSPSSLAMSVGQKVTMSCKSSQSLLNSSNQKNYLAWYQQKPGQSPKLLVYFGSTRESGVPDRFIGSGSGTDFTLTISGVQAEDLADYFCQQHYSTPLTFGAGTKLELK
notes: also called Fab of well C3
B9: 3D3 mouse-human chimeric IgG1 anti-KAAG1 monoclonal antibody (antibody, V domains shown)
VH: EVQLQQSVAELVRPGASVTLSCKASGYIFTDYEIHWVKQTPVHGLEWIGVIDPETGNTAFNQKFKGKATLTADISSSTAYMELSSLTSEDSAVYYCMGYSDYWGQGTTLTVSS
VL: DIVMTQSPSSLAVSIGQKVTMNCKSSQSLLNSNFQKNFLAWYQQKPGQSPKLLIYFASTRESSIPDRFIGSGSGTDFTLTISSVQAEDLADYFCQQHYSTPLTFGAGTKLELKA
notes: Mouse variable regions on human kappa and human IgG1 constant regions, expressed in 293E cells; also called chimeric 3D3; 3D3 chimeric IgG1
B10: 3D3 mouse anti-KAAG1 Fab (Fab, V domains shown)
VH: EVQLQQSVAELVRPGASVTLSCKASGYIFTDYEIHWVKQTPVHGLEWIGVIDPETGNTAFNQKFKGKATLTADISSSTAYMELSSLTSEDSAVYYCMGYSDYWGQGTTLTVSS
VL: DIVMTQSPSSLAVSIGQKVTMNCKSSQSLLNSNFQKNFLAWYQQKPGQSPKLLIYFASTRESSIPDRFIGSGSGTDFTLTISSVQAEDLADYFCQQHYSTPLTFGAGTKLELK
notes: Recombinant mouse Fab prepared from E. coli, from Omniclonal AL0003Z1; also called 3D3 Fab
B11: A9 (Fab, V domains shown)
VH: QVQVQQPGAELVRPGASVTLSCKASGYIFTDYEVHWVRQRPVHGLEWIGVIDPETGDTAYNQKFKGKATLTADKSSSTAYMELSSLTAEDSAVYYCIGYADYWGQGTTLTVSS
VL: DIVMTQSPSSLAMSLGQKVTMSCKSSQSLLNSNNQLNYLAWYQQKPGQSPKLLVYFASTRKSGVPDRFIGSGSGTDFTLTITSVQAEDLADYFCQQHFNTPLTFGAGTKLELK
notes: also called Fab of well A9
B12: G8 (Fab, V domains shown)
VH: QVQLKQSGAELVRPGASVTLSCKASGYTFTDYEVHWVKQTPVHGLEWIGVIDPATGDTAYNQKFKGKATLTADKSSSTAYMEVSSLTSEDSAVYYCMGYSDYWGQGTTLTVSS
VL: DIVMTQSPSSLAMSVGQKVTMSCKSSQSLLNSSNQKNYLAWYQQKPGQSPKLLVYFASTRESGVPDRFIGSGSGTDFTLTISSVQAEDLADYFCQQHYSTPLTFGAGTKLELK
notes: also called Fab of well G8

Legend:
[1] = target: T1, recombinant Fc-KAAG1 fusion protein …; experiment: ELISA
Description: (§1) The 96-well master plate of monoclonal preparations contained different concentrations of purified anti-KAAG1 Fabs in each well. A second stock master plate was prepared by diluting the Fabs to a final concentration of 10 μg/ml from which all subsequent dilutions were performed for ELISA measurements. To carry out the binding of Fc-KAAG1 to the monoclonal preparations, the Fc-KAAG1 was biotinylated with NHS-biotin (Pierce, Rockford, Ill.) and 10 ng/well was coated in a streptavidin 96-well plate. One nanogram of each Fab monoclonal preparation was added to each well and incubated at room temperature for 30 minutes. Bound antibody was detected with HRP-conjugated mouse anti-kappa light chain antibody in the presence of TMB liquid substrate (Sigma-Aldrich Canada Ltd., Oakville, ON) and readings were conducted at 450 nm in microtiter plate reader.

[2] = target: T1, recombinant Fc-KAAG1 fusion protein …; experiment: ELISA; remark: listed apart in the source
[3] = target: T2, Fc-fused truncated mutant of KAAG1 …; experiment: ELISA
biotinylated Fc domain = target: T5, biotinylated Fc domain (UniProt P01857-1 104-330 = IgG part, limits assumed, biotinylated); experiment: ELISA, biotinylated Fc domain on streptavidin plate, Fab detected with HRP anti-kappa
T5 construct: domain: Fc domain; Control antigen of the Fab ELISA; also called Fc domain (control)
Description: as §1

[4] = target: T3, KAAG1 (Kidney associated antigen 1), …; experiment: cell-based ELISA on fixed, non-permeabilised OV-90 cells
Description: (§2) KAAG1 is expressed on the surface of ovarian cancer cells. […] Following extensive washing of the cells, bound antibody was detected with HRP-conjugated anti-human IgG as a secondary antibody in a modified cell-based ELISA (see FIG. 16A). […] Additionally, the 3D3 antibody produced the strongest signal implying that the epitope targeted by this antibody was the most accessible in this assay. […] A second approach used was flow cytometry. In this case, a mouse 3D3 anti-KAAG1 antibody was incubated with SKOV-3 ovarian cancer cells at saturating conditions and following extensive washing, the bound 3D3 anti-KAAG1 antibody was detected with anti-mouse IgG conjugated to FITC in a flow cytometer.

[5] = target: T1, recombinant Fc-KAAG1 fusion protein …; experiment: ELISA on recombinant Fc-KAAG1
Description: as §1
Since an antibody harboring effector functions was required, the h3D3 was assembled as a human IgG₁. ELISA-based assays were performed to directly compare the ability of the h3D3 […]. The methods used to perform these tests were as described in Example 3 using recombinant Fc-KAAG1.

[6] = target: T3, KAAG1 (Kidney associated antigen 1), …; experiment: cell-based ELISA on fixed, non-permeabilised TOV-21G cells
Description: as §2

[7] = target: T4, monomeric recombinant KAAG1; experiment: SPR (Biacore), antibody captured by anti-human Fc, 1:1 fit
Description: (§3) More precise measurements were conducted using Surface Plasmon Resonance (SPR) in a Biacore instrument. Kinetic analysis was used to compare the affinity of the chimeric 3D3 with the h3D3 as well as with hybrid antibodies encompassing different permutations of the light and heavy chains (see FIG. 18B). Briefly, anti-human Fc was immobilized on the Biacore sensor chip and chimeric or h3D3 was captured on the chip. Different concentrations of monomeric recombinant KAAG1 were injected and the data were globally fitted to a simple 1:1 model to determine the kinetic parameters of the interaction.

[8] = target: T4, monomeric recombinant KAAG1; experiment: SPR (Biacore): antibody captured on immobilised anti-human Fc, monomeric recombinant KAAG1 injected, global 1:1 fit; average KD; chimeric 3D3 tabulated as 'm3D3' in FIG. 18B
Description: as §3

[9] = target: T4, monomeric recombinant KAAG1; experiment: SPR (Biacore): antibody captured on immobilised anti-human Fc, monomeric recombinant KAAG1 injected, global 1:1 fit; average KD; chimeric light + chimeric heavy chain, 'CC' in FIG. 18B
Description: as §3

[10] = target: T1, recombinant Fc-KAAG1 fusion protein …; experiment: ELISA on Fc-KAAG1
Description: as §1
Expression of human IgG1s in 293E cells—The expression vectors prepared above that encoded the light and heavy chain immunoglobulins were expressed in 293E cells using the transient transfection system (Durocher et al., 2002). The methods used for co-transfecting the light and heavy chain expression vectors were described in Example 3. […] The ability of the chimeric anti-KAAG1 monoclonal antibodies to bind to recombinant Fc-KAAG1 was measured in the ELISA and compared with the original mouse Fabs. The method was described in Example 3. […]

| Binder | OD450 [1] | OD450 [2] | OD450 [3] | binding result (biotinylated Fc domain) | further results |
| --- | --- | --- | --- | --- | --- |
| B1 | 1.38 | 1.38 | – | – | – |
| B2 | 0.32 | 0.32 | 1.97 | no binding | – |
| B3 | – | – | – | – | EC50 (read off the curve) [4]: ~0.6 µg/mL |
| B4 | 0.25 | 0.25 | 1.93 | no binding | – |
| B5 | 0.15 | 0.15 | 1.21 | no binding | – |
| B6 | 2.78 | 2.78 | – | no binding | – |
| B7 | 0.02 | 0.02 | – | – | – |
| B8 | 1.04 | 1.04 | – | – | – |
| B9 | – | – | – | – | EC50 (read off the curve) [5]: ~0.4 µg/mL; EC50 (read off the curve) [4]: ~0.9 µg/mL; EC50 (read off the curve) [6]: ~0.6 µg/mL; Ka [7]: 4.5e+09 M⁻¹ and 2.71e+09 M⁻¹; Kd [7]: 0.368 nM; koff [7]: 0.00065 s⁻¹ and 0.00073 s⁻¹; kon [7]: 2.91e+06 M⁻¹ s⁻¹ and 1.98e+06 M⁻¹ s⁻¹; Kd [8]: 0.235 nM; Kd [9]: 0.271 nM |
| B10 | 1.21 | 1.21 | – | no binding | EC50 (read off the curve) [10]: ~0.5 µg/mL |
| B11 | 1.53 | 1.53 | 0.1 | – | – |
| B12 | 1.72 | 1.72 | – | – | – |
